Results as given in publication PMC6797848, “A TBR1-K228E Mutation Induces Tbr1 Upregulation, Altered Cortical Distribution of Interneurons, Increased Inhibitory Synaptic Transmission, and Autistic-Like Behavioral Deficits in Mice”.

Key:
Conditions in all cases: protein: recombinant; tags: N-terminal His6 removed by thrombin (pET28a, NdeI/HindIII); label: 5'-biotin on strand 1
TBR1 T-box domain K228E = biological target: T1, TBR1 T-box domain K228E (human, UniProt Q16650 200-400, K228E); assay: BLI; n=3; Kd only plotted in figure; BLI (BLITZ, streptavidin sensor): kinetic buffer 20 mM HEPES pH 7.5, 100 mM NaCl, 25 C (stated for sensor hydration/equilibration); protein stock in 20 mM HEPES pH 7.5, 150 mM NaCl, 5 mM MgCl2
T1 sequence: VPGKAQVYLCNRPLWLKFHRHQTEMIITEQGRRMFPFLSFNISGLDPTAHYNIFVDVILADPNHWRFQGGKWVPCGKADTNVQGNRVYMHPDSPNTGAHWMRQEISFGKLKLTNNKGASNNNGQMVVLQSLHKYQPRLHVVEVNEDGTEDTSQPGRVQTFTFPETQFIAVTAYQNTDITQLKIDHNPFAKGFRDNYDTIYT

TBR1 T-box domain N374H = biological target: T2, TBR1 T-box domain N374H (human, UniProt Q16650 200-400, N374H); assay: BLI; n=3; stated as no effect on affinity; Kd only plotted in figure; BLI (BLITZ, streptavidin sensor): kinetic buffer 20 mM HEPES pH 7.5, 100 mM NaCl, 25 C (stated for sensor hydration/equilibration); protein stock in 20 mM HEPES pH 7.5, 150 mM NaCl, 5 mM MgCl2
T2 sequence: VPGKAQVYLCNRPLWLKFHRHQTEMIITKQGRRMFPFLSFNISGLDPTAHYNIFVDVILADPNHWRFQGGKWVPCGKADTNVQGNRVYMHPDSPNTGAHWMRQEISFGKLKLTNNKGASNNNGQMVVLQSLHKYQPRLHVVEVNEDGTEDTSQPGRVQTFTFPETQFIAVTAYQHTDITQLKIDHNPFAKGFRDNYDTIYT

[1] = biological target: T3, TBR1 T-box domain WT (hTBR1DBD) (human, UniProt Q16650 200-400); assay: BLI; protein 2.5-10 uM; Kd only plotted in figure; BLI (BLITZ, streptavidin sensor): kinetic buffer 20 mM HEPES pH 7.5, 100 mM NaCl, 25 C (stated for sensor hydration/equilibration); protein stock in 20 mM HEPES pH 7.5, 150 mM NaCl, 5 mM MgCl2
T3 sequence: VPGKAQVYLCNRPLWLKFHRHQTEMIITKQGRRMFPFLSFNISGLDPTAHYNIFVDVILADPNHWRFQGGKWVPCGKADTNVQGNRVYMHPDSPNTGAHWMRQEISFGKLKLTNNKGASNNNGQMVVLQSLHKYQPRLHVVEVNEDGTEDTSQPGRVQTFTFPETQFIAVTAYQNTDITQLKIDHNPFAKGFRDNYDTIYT

B1: Grin2b-promoter probe (dsDNA)
DNA 1: TATATAGGTTGAGTGGCACGTTCCTGGGTGTGAGACC
DNA 2: GGTCTCACACCCAGGAACGTGCCACTCAA
TBR1 T-box domain K228E
  binding signal: ~3 fold increase in Kd vs WT
TBR1 T-box domain N374H
  binding signal: ~1 fold Kd vs WT
[1]
  binding result: binds
